Target: T1, full length human Tau (not phosphorylated) (human, UniProt P10636 1-758)
T1 construct: Human Tau isoform F, 441 residues; also called full length tau; Tau protein
Assay: Western blot on recombinant Tau, all antibodies 1 ug/ml

T1 sequence (P10636 other isoform, or with tags, fused parts or gaps limits assumed): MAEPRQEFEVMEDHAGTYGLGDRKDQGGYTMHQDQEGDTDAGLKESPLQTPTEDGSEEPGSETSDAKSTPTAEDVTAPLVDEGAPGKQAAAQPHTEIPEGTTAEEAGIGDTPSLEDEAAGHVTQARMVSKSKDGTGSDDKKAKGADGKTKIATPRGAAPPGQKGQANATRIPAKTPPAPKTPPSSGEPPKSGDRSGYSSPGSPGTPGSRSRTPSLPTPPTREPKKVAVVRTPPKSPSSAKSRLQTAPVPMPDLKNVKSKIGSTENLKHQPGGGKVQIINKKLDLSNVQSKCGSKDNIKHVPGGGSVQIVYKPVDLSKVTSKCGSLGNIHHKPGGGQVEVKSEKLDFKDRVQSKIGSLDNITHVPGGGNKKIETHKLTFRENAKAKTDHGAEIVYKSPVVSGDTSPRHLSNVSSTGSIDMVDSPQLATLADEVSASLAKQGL

| binding result | Binder |
| --- | --- |
| no binding (tested: 1 ug/ml) | VH32/VL21 (antibody, V domains shown) VH: EVQVLESGGGLVQPGGSLRLSCAVSGFSLSSNAINWVRQAPGKGLEWVGYIAVSGNTYYASWAKGRFTISRDNSKNTVYLQMNSLRAEDTAVYYCGKSNIWGQGTLVTVSS VL: AQVMTQSPSSLSASVGDRVTITCRSSQSVRTNKLAWFQQKPGQPPKRLIYSASTLDFGVPSRFSGSGSGTEFTLTISSLQPEDFATYYCLGYFDSSADIVAFGGGTKVEIK |
| no binding (tested: 1 ug/ml) | VH32/VL22 (antibody, V domains shown) VH: EVQVLESGGGLVQPGGSLRLSCAVSGFSLSSNAINWVRQAPGKGLEWVGYIAVSGNTYYASWAKGRFTISRDNSKNTVYLQMNSLRAEDTAVYYCGKSNIWGQGTLVTVSS VL: AQVMTQSPSSLSASVGDRVTITCRSSQSVRTNRLAWFQQKPGQPPKRLIYSASTLDYGVPSRFSGSGSGTEFTLTISSLQPEDFATYYCLGYFDSSADIVAFGGGTKVEIK |
